Changes are numbered by the printed parent chain.

To fix the notation:
T1: DKK1-APP (human, UniProt O94907 32-266)
T1 sequence: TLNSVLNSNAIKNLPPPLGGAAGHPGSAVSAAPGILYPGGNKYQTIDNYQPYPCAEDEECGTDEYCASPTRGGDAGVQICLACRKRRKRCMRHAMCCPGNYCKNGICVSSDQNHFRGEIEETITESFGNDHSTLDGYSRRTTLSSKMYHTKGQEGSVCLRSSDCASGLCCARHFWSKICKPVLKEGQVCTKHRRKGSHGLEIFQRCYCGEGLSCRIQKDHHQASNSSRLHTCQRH

T2: recombinant human DKK1 (human, UniProt O94907 32-266)
T2 sequence: T1 sequence

T3: cynomolgus DKK1 (cynomolgus monkey (Macaca fascicularis), UniProt A0A7N9IE82 32-266)
T3 construct: also called cyno DKK1; monkey DKK1 (Novartis)
T3 sequence: T1 sequence with H114N, T150S, S166T

T4: mouse DKK1 (R&D Systems) (mouse, UniProt O54908 32-272)
T4 construct: Bought protein
T4 sequence (looked up): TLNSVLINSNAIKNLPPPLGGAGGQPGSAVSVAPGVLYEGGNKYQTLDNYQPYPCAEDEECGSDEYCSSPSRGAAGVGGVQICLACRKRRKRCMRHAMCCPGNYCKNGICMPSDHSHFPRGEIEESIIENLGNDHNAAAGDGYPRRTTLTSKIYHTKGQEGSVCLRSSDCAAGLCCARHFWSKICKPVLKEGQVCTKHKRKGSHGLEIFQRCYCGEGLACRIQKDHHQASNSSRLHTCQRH

T5: biotinylated human DKK1 (human, UniProt O94907 32-266, biotinylated (sites not given))
T5 construct: also called biotinylated DKK1; human recombinant, biotinylated DKK1
T5 sequence: T1 sequence

B1: MOR04470 (Fab, V domains shown)
VH: QVQLVESGGGLVQPGGSLRLSCAASGFTFSSYWMSWVRQAPGKGLEWVSVISSDSSSTYYADSVKGRFTISRDNSKNTLYLQMNSLRAEDTAVYYCARHGIDFDHWGQGTLVTVSS
VL: DIALTQPASVSGSPGQSITISCTGTSSDLGGYNYVSWYQQHPGKAPKLMIYDVNNRPSGVSNRFSGSKSGNTASLTISGLQAEDEADYYCQSYASGNTKVVFGGGTKLTVLG
notes: Fab with C-terminal FLAG and 6xHis tags
B2: MOR04947 (Fab, V domains shown)
VH: QVQLVQSGAEVKKPGESLKISCKGSGYSFTNYYIGWVRQMPGKGLEWMGIIVPGTSYTIYSPSFQGQVTISADKSISTAYLQWSSLKASDTAMYYCARGIPFRMRGFDYWGQGTLVTVSS
VL: DIVLTQPPSVSGAPGQRVTISCSGSSSNIGSSFVNWYQQLPGTAPKLLIGNNSNRPSGVPDRFSGSKSGTSASLAITGLQSEDEADYYCASFDMGSPNVVFGGGTKLTVLG
B3: MOR04952 (Fab, V domains shown)
VH: B1 VH
VL: B1 VL with A94D, G96P, N97T, T98D, K99S
B4: MOR04920 (Fab, V domains shown)
VH: QVQLVESGGGLVQPGGSLRLSCAASGFTFSSYWMSWVRQAPGKGLEWVSSIEHKDAGYTTWYAAGVKGRFTISRDNSKNTLYLQMNSLRAEDTAVYYCARHGIDFDHWGQGTLVTVSS
VL: B1 VL
B5: MOR04910 (Fab, V domains shown)
VH: B1 VH with V50G, S53Y, D54S, S55G, S57N, Y59H, H99M, F103L, H105Y
VL: DIALTQPASVSGSPGQSITISCTGTSSDVGGFNYVSWYQQHPGKAPKLMIHDGSNRPSGVSNRFSGSKSGNTASLTISGLQAEDEADYYCQSWDVSPITAVFGGGTKLTVLG
notes: also called anti-DKK1 FAb MOR04910
B6: MOR04948 (Fab, V domains shown)
VH: B1 VH with V50G, S53Y, D54S, S55G, S57N, Y59H, H99M, F103L, H105Y
VL: DIALTQPASVSGSPGQSITISCTGTSSDVGGFNYVSWYQQHPGKAPKLMIHDGSNRPSGVSNRFSGSKSGNTASLTISGLQAEDEADYYCQTWDSLSFFVFGGGTKLTVLG
B7: MOR04945 (Fab, V domains shown)
VH: B1 VH
VL: B1 VL with S92T, A94D, S95Q, G96I, N97K, T98L, K99S, V100A
B8: MOR04946 (Fab, V domains shown)
VH: QVQLVESGGGLVQPGGSLRLSCAASGFTFNNYGMTWVRQAPGKGLEWVSGISGSGSYTYYADSVKGRFTISRDNSKNTLYLQMNSLRAEDTAVYYCARTIYMDYWGQGTLVTVSS
VL: DIVLTQSPATLSLSPGERATLSCRASQNLFSPYLAWYQQKPGQAPRLLIYGASNRATGVPARFSGSGSGTDFTLTISSLEPEDFAVYYCQQYLTLPLTFGQGTKVEIKR
B9: MOR04913 (Fab, V domains shown)
VH: B8 VH
VL: B8 VL with L93M, K108N

The first test has as its target T1, DKK1-APP. Nature of the test: cell-based or functional assay.
Consider B1, for which the “Luciferase reporter assay; EC50” value worked out at 58 nM.

The next test has as its target T2, recombinant human DKK1. As to the kind of experiment: cell-based or functional assay.
Consider B2, for which the “TCF/LEF luc assay w/Kremen: EC50” value was 1.7 nM.

As for B3, the “TCF/LEF luc assay w/Kremen: EC50” value came to 0.6 nM.

B4: the “TCF/LEF luc assay w/Kremen: EC50” value was determined as 1.8 nM.

Consider B5, for which the “TCF/LEF luc assay w/Kremen: EC50” value stood at 0.3 nM.

For B6, the “TCF/LEF luc assay w/Kremen: EC50” value came out at 0.5 nM.

For the molecule B7, the “TCF/LEF luc assay w/Kremen: EC50” value amounted to 0.5 nM.

In the case of B8, the “TCF/LEF luc assay w/Kremen: EC50” value amounted to 0.2 nM.

Take B9: the “TCF/LEF luc assay w/Kremen: EC50” value was 0.5 nM.

Another test concerns the target T3, cynomolgus DKK1. Nature of the test: SPR (Biacore), DKK1 immobilised on CM5 chip, Fab as analyte. As for the experimental part: (§1) Using these clones, kinetic SPR analysis is performed on a. […] The Fab preparations are applied in concentration series of 16-500 nM at a flow rate of 20 μl/min. Association phase is set to 60 s and dissociation phase to 120 s.
The Kd is the free concentration of one partner at which half of the binding sites on the other are occupied at equilibrium, for simple one-to-one binding. For B1, the affinity, expressed as Kd, was 1.7 nM.

Another test addresses T2, recombinant human DKK1. The test is described as above. As for the experimental part:
as §1
For the molecule B1, the Kd worked out at 3.2 nM.

In a further test the target is T4, mouse DKK1 (R&D Systems). The description is as above. On the procedure: as §1
As for B1, the Kd stood at 3.6 nM.

A further test concerns the target T1, DKK1-APP. As to the kind of experiment: cell-based or functional assay. This is another data set of the same source.
As usually defined, the EC50 is the concentration needed to bring the measured effect to its halfway point. Take B1: the “EC50” value amounted to 58 nM.

The next test deals with T5, biotinylated human DKK1. Nature of the test: ELISA, biotinylated DKK1 on Neutravidin plates, Fab 1 ug/ml, anti-FLAG-AP detection. On the procedure: Binding specificity of the matured Fabs in the presence of 50% human serum (HS) is determined. […] After coating of the antigen, wells are blocked with TBS/0.05% Tween (TBS-T) supplemented with 1% BSA for 1 h at room temperature. Purified Fabs described above are diluted either in TBS/4% BSA or TBS/50% HS at a final concentration of 1 μg/ml, added to the coated and blocked wells and the plates are incubated for 1 h at room temperature. For detection, an anti-FLAG alkaline phosphatase (AP)-conjugated antibody (1:5000 dilution in TBST) and the fluorogenic substrate AttoPhos (Roche) are used. After each incubation, the wells of the microtiter plates are washed with TBST five times, except after the final incubation step with the labeled secondary antibody when wells are washed three times.
The fluorescence is measured in a TECAN Spectrafluor plate reader.
A general note: An ELISA detects its analyte on a solid surface through an enzyme-linked reagent.
Consider B3, for which the “Binding activity w/50% Human serum vs 4% BSA (%)” value was determined as 100%.

As for B4, the “Binding activity w/50% Human serum vs 4% BSA (%)” value amounted to 90%.

In the case of B5, the “Binding activity w/50% Human serum vs 4% BSA (%)” value was 84%.

Take B6: the “Binding activity w/50% Human serum vs 4% BSA (%)” value stood at 100%.

In the case of B7, the “Binding activity w/50% Human serum vs 4% BSA (%)” value worked out at 89%.

Turning to B8, the “Binding activity w/50% Human serum vs 4% BSA (%)” value stood at 93%.

For B9, the “Binding activity w/50% Human serum vs 4% BSA (%)” value amounted to 89%.

For the next test, the target named is T3, cynomolgus DKK1. Nature of the test: solution equilibrium titration (SET), ECL (BioVeris), Fab. On the procedure: (§2) Electrochemiluminescence (ECL) based affinity determination in solution and data evaluation are basically performed as described by Haenel et al., 2005. […] Subsequently, the concentration of unbound Fab is quantified by ECL detection using the M-SERIES® 384 analyzer (BioVeris Europe).
(§3) Affinities are calculated according to Haenel et al., 2005 Anal Biochem 339.1:182-184.
Take B2: binding was put at a Kd of 0.058 nM.

B3 had a Kd of 0.058 nM.

In turn, B4 had a Kd of 0.05 nM.

Turning to B5, the Kd was determined as 0.037 nM.

In turn, B6 displayed a Kd of 0.067 nM.

With B7, the Kd was found to be 0.08 nM.

B8: binding was characterised by a dissociation constant (Kd) of 0.036 nM.

As to B9, binding was put at a Kd of 0.051 nM.

For another test, the target named is T2, recombinant human DKK1. The description is as above. As for the experimental part:
as §2, §3
Take B2: the Kd is 0.032 nM.

For the molecule B3, the Kd came to 0.1 nM.

For B4, the Kd is 0.053 nM.

As for B5, the Kd was 0.024 nM.

Turning to B6, the dissociation constant (Kd) came to 0.057 nM.

For B7, the Kd came out at 0.069 nM.

On to B8, for which the dissociation constant Kd amounted to 0.025 nM.

For B9, the Kd was 0.038 nM.

Another test deals with T4, mouse DKK1 (R&D Systems). The description is as above. As for the experimental part: as §2, §3
In turn, B2 displayed an equilibrium dissociation constant (Kd) of 0.03 nM.

B3 registered a Kd of 0.071 nM.

For B4, the Kd came to 0.04 nM.

With B5, binding was put at a Kd of 0.042 nM.

In the case of B6, the affinity, expressed as Kd, was 0.065 nM.

Turning to B7, binding was put at a Kd of 0.074 nM.

Consider B8, for which the affinity, expressed as Kd, was 0.041 nM.

In turn, B9 displayed a Kd of 0.044 nM.

The target in the next test is T1, DKK1-APP. As to the kind of experiment: cell-based or functional assay. This is another data set of the same source.
With B3, the “Luciferase reporter assay w/o Kremen; Activity in 15% Human serum (%)” value (from here on “Luciferase reporter assay w/o Kremen … (%)”) turned out to be 60%.

With B4, the “Luciferase reporter assay w/o Kremen … (%)” value was 75%.

For the molecule B5, the “Luciferase reporter assay w/o Kremen … (%)” value was 90%.

Turning to B6, the “Luciferase reporter assay w/o Kremen … (%)” value stood at 70%.

Turning to B7, the “Luciferase reporter assay w/o Kremen … (%)” value came out at 74%.

With B8, the “Luciferase reporter assay w/o Kremen … (%)” value amounted to 60%.

Regarding B9, the “Luciferase reporter assay w/o Kremen … (%)” value was found to be 88%.

In the next test the target is T3, cynomolgus DKK1. Nature of the test: SPR (Biacore), DKK1 immobilised on CM5 chip, Fab as analyte. This is another data set of the same source. As for the experimental part:
as §1
Take B1: the Kd came to 1.7 nM.

In the next test the target is T2, recombinant human DKK1. The test is described as above. The source holds these as a separate data set. On the procedure: as §1
On to B1, for which the equilibrium dissociation constant (Kd) was 3.2 nM.

The next test deals with T4, mouse DKK1 (R&D Systems). Described as above. This is another data set of the same source. On the procedure: as §1
For the molecule B1, the Kd was determined as 3.6 nM.

In the next test the target is T3, cynomolgus DKK1. Described as above. The source holds these as a separate data set. On the procedure: as §1
B1 displayed a Kd of 1.7 nM.

A further test has as its target T2, recombinant human DKK1. The test is described as above. The source holds these as a separate data set. As for the experimental part:
as §1
Take B1: the Kd came out at 3.2 nM.

The target in a further test is T4, mouse DKK1 (R&D Systems). Described as above. The source holds these as a separate data set. On the procedure: as §1
B1 returned a Kd of 3.6 nM.

The record behind these values is patent publication US20120023600A1 (Novartis, published 2012).
